{"source": "patent US20250289899A1", "about": "(Genmab, published 2025)", "key": {"[1]": {"molecular_target": "T1, human CD27, full length, on cells (T cells, transfected HEK293F cells, Daudi cells, NFκB-luc2/CD27 Jurkat … (human, UniProt P26842 20-240))", "T1 construct": "Residues 1-19 are stated to be the signal peptide; also called TNFRSF7", "T1 sequence": "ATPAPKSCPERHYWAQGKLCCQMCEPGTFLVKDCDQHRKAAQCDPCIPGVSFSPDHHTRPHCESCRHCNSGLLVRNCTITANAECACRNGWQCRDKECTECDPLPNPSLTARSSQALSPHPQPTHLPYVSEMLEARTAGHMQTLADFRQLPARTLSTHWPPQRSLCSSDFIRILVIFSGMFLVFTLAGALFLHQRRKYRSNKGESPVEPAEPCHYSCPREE", "assay": "flow cytometry on CD8+ T cells in human PBMC, FITC goat anti-human IgG F(ab')2, median FITC", "protocol": "Binding of IgG1-CD27-A-P329R-E345R to CD27 on human healthy donor T cells was characterized in more detail using flow cytometry. Anti-HIV gp120 antibody variant IgG1-b12-P329R-E345R was used as non-binding control antibody (ctrl). Human PBMCs were isolated from buffy coats obtained from human healthy donors. PBMC (1×10⁵ cells/well) in FACS buffer were added to polystyrene 96-well round-bottom plates (Greiner bio-one, Cat #650101) and pelleted by centrifugation at 300×g for 3 min at 4° C. The cells were resuspended in 50 μL/well serial antibody dilutions in FACS buffer (range 0.0015 to 10 μg/mL in 3-fold dilution steps) and incubated for 30 min at 4° C. Cells were pelleted, washed twice with FACS buffer and incubated in 50 μL/well with FITC-conjugated secondary antibody (FITC AffiniPure F(ab′)₂ fragment goat anti-human IgG, F(ab′)₂ fragment specific, Jackson ImmunoResearch, Cat #109-096-097, diluted 1:100) for 30 min at 4° C. in the dark. […] The samples were measured by flow cytometry on an LSRFortessa (BD) flow cytometer and analyzed using FlowJo software. Binding curves were analyzed using non-linear regression (sigmoidal dose-response with variable slope) using GraphPad Prism 8 software."}, "[2]": {"molecular_target": "T2, recombinant His-tagged human FcγRIIb (human, UniProt P31994 43-217)", "T2 construct": "Bought; captured on anti-His chip; not shown: His tag", "T2 sequence (looked up)": "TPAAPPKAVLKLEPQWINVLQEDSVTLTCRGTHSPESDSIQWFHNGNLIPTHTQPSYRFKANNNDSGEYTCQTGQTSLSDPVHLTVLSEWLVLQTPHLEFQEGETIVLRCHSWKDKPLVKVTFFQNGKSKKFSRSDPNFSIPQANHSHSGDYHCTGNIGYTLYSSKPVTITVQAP", "assay": "SPR (Biacore), His-tagged FcγRIIb captured on anti-His chip, antibody in solution, resonance units against antibody concentration"}, "[3]": {"molecular_target": "T3, recombinant His-tagged human FcγRIIa (167-Arg [R]) (human, UniProt P12318 34-218, limits assumed)", "T3 construct": "Bought; captured on anti-His chip; also called FcγRIIa-R; not shown: His tag", "T3 sequence (looked up)": "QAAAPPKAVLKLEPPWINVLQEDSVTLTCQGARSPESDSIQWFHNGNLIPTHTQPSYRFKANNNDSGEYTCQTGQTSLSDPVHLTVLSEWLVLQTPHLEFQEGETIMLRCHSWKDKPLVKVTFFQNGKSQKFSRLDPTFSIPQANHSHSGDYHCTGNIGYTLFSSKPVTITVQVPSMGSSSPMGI", "assay": "SPR (Biacore), His-tagged FcγRIIa-R captured on anti-His chip, antibody in solution, resonance units against antibody concentration"}, "[4]": {"molecular_target": "T4, recombinant His-tagged human FcγRIIIa (176-Phe [F]) (human, UniProt P08637 17-208)", "T4 construct": "Bought; captured on anti-His chip; also called FcγRIIIa-F; not shown: His tag", "T4 sequence (P08637 17-208 limits assumed)": "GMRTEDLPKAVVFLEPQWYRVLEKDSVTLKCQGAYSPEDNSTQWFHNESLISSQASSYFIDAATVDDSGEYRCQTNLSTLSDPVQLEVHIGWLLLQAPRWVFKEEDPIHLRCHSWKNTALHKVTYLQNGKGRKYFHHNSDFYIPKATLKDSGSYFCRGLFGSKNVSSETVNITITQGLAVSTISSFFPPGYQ", "assay": "SPR (Biacore), His-tagged FcγRIIIa-F captured on anti-His chip, antibody in solution, resonance units against antibody concentration"}, "[5]": {"molecular_target": "T5, recombinant His-tagged human FcγRIIIa (176-Val [V]) (human, UniProt P08637 17-208)", "T5 construct": "Bought; captured on anti-His chip; also called FcγRIIIa-V; not shown: His tag", "T5 sequence (P08637 17-208 F176V limits assumed)": "as the sequence (P08637 17-208 limits assumed) above, with F160V counted along it", "assay": "SPR (Biacore), His-tagged FcγRIIIa-V captured on anti-His chip, antibody in solution, resonance units against antibody concentration"}, "[6]": {"molecular_target": "T6, human C1q (from normal human serum) (human, UniProt P02745 23-245; P02746 28-253; P02747 29-245)", "T6 construct": "20% normal human serum was the source of C1q", "T6 sequence (P02745 23-245 limits assumed, chain 1 of 3)": "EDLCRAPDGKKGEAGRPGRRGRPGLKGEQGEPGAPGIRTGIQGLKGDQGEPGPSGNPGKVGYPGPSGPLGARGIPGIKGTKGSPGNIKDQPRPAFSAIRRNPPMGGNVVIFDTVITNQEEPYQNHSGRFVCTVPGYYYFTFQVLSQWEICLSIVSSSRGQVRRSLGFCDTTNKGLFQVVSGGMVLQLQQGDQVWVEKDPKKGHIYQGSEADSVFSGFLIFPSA", "T6 sequence (P02746 28-253 limits assumed, chain 2 of 3)": "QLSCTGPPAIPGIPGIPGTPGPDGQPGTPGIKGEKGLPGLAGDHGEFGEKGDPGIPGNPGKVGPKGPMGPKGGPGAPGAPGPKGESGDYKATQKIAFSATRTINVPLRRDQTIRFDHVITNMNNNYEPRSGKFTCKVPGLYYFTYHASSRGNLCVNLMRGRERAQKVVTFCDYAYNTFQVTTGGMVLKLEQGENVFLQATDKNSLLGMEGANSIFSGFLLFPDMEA", "T6 sequence (P02747 29-245 limits assumed, chain 3 of 3)": "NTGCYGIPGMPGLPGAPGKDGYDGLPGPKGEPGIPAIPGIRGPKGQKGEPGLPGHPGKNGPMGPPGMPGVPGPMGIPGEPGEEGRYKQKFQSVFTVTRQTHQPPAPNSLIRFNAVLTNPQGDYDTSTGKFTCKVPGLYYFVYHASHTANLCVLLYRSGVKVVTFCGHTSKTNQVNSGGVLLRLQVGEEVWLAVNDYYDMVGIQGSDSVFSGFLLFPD", "assay": "flow cytometry, C1q (20% normal human serum) on human T cells pre-incubated with the antibody, FITC rabbit anti-human C1q, median MFI FITC; antibody concentration varied", "protocol": "The P329R mutation was previously described to reduce interaction of IgG1 antibodies with C1q and FcgR (Overdijk et al, Molecular Cancer Therapeutics 2020). The effect of the P329R mutation on C1q binding of IgG1-CD27-A comprising the E345R mutation was tested in cellular C1q binding assays in vitro using human healthy donor T cells. Anti-HIV gp120 antibody IgG1-b12-F405L was used as non-binding isotype control antibody (ctrl). […] T cells (2×10⁶ cells/well) were pre-incubated in polystyrene 96-well round-bottom plates with antibody dilution series (8× five-fold dilution starting at 15 μg/mL final assay concentration) for 15 min at 37° C. to allow the antibodies to bind to the T cells. Then, cells were cooled on ice, supplemented with NHS as a source of human C1q (20% NHS final assay concentration) and incubated on ice for 45 min. Cells were subsequently incubated on ice with FITC-labeled Rabbit anti-human C1q antibody (DAKO, Cat #F0254; 20 μg/mL) for 30 min and resuspended in FACS buffer with TO-PRO-3 (ThermoFisher, Cat #T3605; 1:5,000 dilution). C1q binding was determined by flow cytometry measuring the FITC signal on live cells."}}}
{"binder": "IgG1-CD27-A-P329R-E345R (antibody, also called IgG1-CD27-A-E345R-P329R) heavy: not shown light: QSALTQPASVSGSPGQSITISCTGTSSDVYYYNYVSWYQQHPGRAPKLVIYDVSNRPSGVSNRFSGSKSGNTASLTISGLRAEDEADYYCSSYTVNRVWVFGGGTKLTVLGQPKAAPSVTLFPPSSEELQANKATLVCLISDFYPGAVTVAWKADSSPVKAGVETTTPSKQSNNKYAASSYLSLTPEQWKSHRSYSCQVTHEGSTVEKTVAPTECS", "values": [{"measurement": "EC50 (read off the curve)", "setting": "[1]", "result": "~0.03", "unit": "µg/mL"}, {"measurement": "binding result", "setting": "[2]", "result": "no binding (tested: 10,000 nM)"}, {"measurement": "binding result", "setting": "[3]", "result": "no binding (tested: 10,000 nM)"}, {"measurement": "binding result", "setting": "[4]", "result": "no binding (tested: 10,000 nM)"}, {"measurement": "binding result", "setting": "[5]", "result": "no binding (tested: 10,000 nM)"}, {"measurement": "binding result", "setting": "[6]", "result": "no binding (tested: 15 µg/mL)"}]}
